T1: PIK3CA G118D, mimic peptide PIK3CA_G118D5 peptide on HLA-A*02:01 (human)
T1 peptide: ILNREIDFV

T2: PIK3CA G118D peptide on HLA-A*02:01 (human)
T2 peptide: ILNREIDFA

T3: TP53 C141Y peptide on HLA-A*02:01 (human)
T3 peptide: KTYPVQLWV

T4: TP53 C141Y, mimic peptide TP53_C141Y8 peptide on HLA-A*02:01 (human)
T4 peptide: KMYPVQLWL

B1: TCR of SEQ ID NOs 120 and 114 (TCR)
alpha TRAV12-2*01 TRAJ15*01 CDR3: CAGLIGTALIF
beta TRBV12-3*01 TRBJ1-2*01 CDR3: CASSFSTCSANYGYTF
B2: TCR of SEQ ID NOs 210 and 114 (TCR)
alpha TRAV8-4*01 TRAJ8*01 CDR3: CAVSDEDTGFQKLVF
beta TRBV12-3*01 TRBJ1-2*01 CDR3: CASSFSTCSANYGYTF

Columns and labels:
Assay in all cases: multimer staining
[1] = target: T1, PIK3CA G118D, mimic peptide …
[2] = target: T2, PIK3CA G118D peptide on HLA-A*02:01
[3] = target: T3, TP53 C141Y peptide on HLA-A*02:01
[4] = target: T4, TP53 C141Y, mimic peptide TP53_C141Y8 …

Row | Binder | binding result [1] | binding result [2] | binding result [3] | binding result [4]
1 | B1 | recognises | recognises | – | –
2 | B2 | – | – | recognises | recognises

Source: patent US20220194999A1 (published 2022)
